Data taken from publication doi:10.1101/2023.01.20.524915 (bioRxiv, 2023).

Target: the molecule itself
Assay: cryo-EM structure

B1: human DNA polymerase theta helicase domain (Polθ-HLD), residues 67-940 (domain or fragment, UniProt O75417 67-940, looked up)
chain: DKLLLANWGLPKAVLEKYHSFGVKKMFEWQAECLLLGQVLEGKNLVYSAPTSAGKTLVAELLILKRVLEMRKKALFILPFVSVAKEKKYYLQSLFQEVGIKVDGYMGSTSPSRHFSSLDIAVCTIERANGLINRLIEENKMDLLGMVVVDELHMLGDSHRGYLLELLLTKICYITRKSASCQADLASSLSNAVQIVGMSATLPNLELVASWLNAELYHTDFRPVPLLESVKVGNSIYDSSMKLVREFEPMLQVKGDEDHVVSLCYETICDNHSVLLFCPSKKWCEKLADIIAREFYNLHHQAEGLVKPSECPPVILEQKELLEVMDQLRRLPSGLDSVLQKTVPWGVAFHHAGLTFEERDIIEGAFRQGLIRVLAATSTLSSGVNLPARRVIIRTPIFGGRPLDILTYKQMVGRAGRKGVDTVGESILICKNSEKSKGIALLQGSLKPVRSCLQRREGEEVTGSMIRAILEIIVGGVASTSQDMHTYAACTFLAASMKEGKQGIQRNQESVQLGAIEACVMWLLENEFIQSTEASDGTEGKVYHPTHLGSATLSSSLSPADTLDIFADLQRAMKGFVLENDLHILYLVTPMFEDWTTIDWYRFFCLWEKLPTSMKRVAELVGVEEGFLARCVKGKVVARTERQHRQMAIHKRFFTSLVLLDLISEVPLREINQKYGCNRGQIQSLQQSAAVYAGMITVFSNRLGWHNMELLLSQFQKRLTFGIQRELCDLVRVSLLNAQRARVLYASGFHTVADLARANIVEVEVILKNAVPFKSARKAVDEEEEAVEERRNMRTIWVTGRKGLTEREAAALIVEEARMILQQDLVEMGVQWNPCALLHSSTCSLTHSESEVKEHTFISQTKSSYKKLTSKNKS
B1 was tested, and the “stoichiometry N” value was 2.
